According to the supplement of paper PMC12042874:
± gives the uncertainty stated by the source.

assay: amyloid nucleation score (Sup35N fusion, yeast selection) (log enrichment); library NNK2; higher = more nucleation; inactive = no reads after selection
Procedure, shortened: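 Libraries of peptides of 20 random codons fused to Sup35N were expressed in psi-negative yeast and induced 24 hours with 100 μM copper sulfate. Selection was 7 days at 30°C on medium lacking adenine and uracil, and plasmid inserts were Illumina-sequenced before and after selection. Nucleation score is the DiMSum log enrichment of output over input reads, centred on the mode score of non-aggregating sequences, and sequences with under 100 input reads were left out.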

Row | Substance | amyloid nucleation score
1 | HTEFGRVGNICLGMRCEVDW | 0.792 ± 0.4
2 | HTHTWT | 1.31 ± 0.38
3 | HTKMYRAAARMVGAGNDFDM | 0.146 ± 0.46
4 | HTTLHSSAIQVWSWRLLYFV | 5.061 ± 0.049
5 | HTVLPWYTIRYKWEGVGLTD | 0.403 ± 0.45
6 | HTWGAHRFCRWRNTSASDSW | 8.703 ± 0.03
7 | HVADTGLIMQYVVSGLRVAG | 0.602 ± 0.22
8 | HVAFKLKVIVRIVSLTSGER | 2.94 ± 0.075
9 | HVFMSTIKICRDQLNHQLRE | 7.729 ± 0.037
10 | HVGLKSLHTMASWFMFDHNI | inactive
11 | HVILM | 1.65 ± 0.33
12 | HVLFIAKLDFALTEFLRMCE | 0.735 ± 0.19
13 | HVNYWGRLCMKKRCNVDVNH | 5.634 ± 0.043
14 | HVRHGESLFFANQA | -0.038 ± 1.1
15 | HVSFLIDRNTMRGLMASSNN | inactive
16 | HVSNSFKSFCN | 1.52 ± 0.2
17 | HVYLSLEDQGILNSTECMQH | -0.393 ± 1.1
18 | HVYPVWFCWLYSFRLHYSQV | -0.149 ± 0.56
19 | HWSFS | 2.85 ± 0.17
20 | HWSYKDSLWVLDAAESVNMS | 0.622 ± 0.66
21 | HYCSVRMWLTTKEADPRTSL | 0.739 ± 0.31
22 | HYLVS | 0.326 ± 0.49
23 | HYMDSNIVLNSAKSRRKDAW | 0.132 ± 0.24
24 | HYRISLSIPHIDHAKAQALL | -0.603 ± 1
25 | IADQTSSSDYLVRTVFNFSV | 1.72 ± 0.099
26 | IAHRVITMP | -0.277 ± 1.1

Row | Substance | amyloid nucleation score
27 | IAIKM | 3.25 ± 0.08
28 | IAMFT | 6.299 ± 0.044
29 | IARSKVGRRYHVGRFRCVCV | -0.095 ± 0.44
30 | IARVDLKFMESIRSHMV | 1.71 ± 0.56
31 | IATAKTRQGFPLMSTLPAIV | 0.37 ± 0.5
32 | IATTATSVGSVR | 0.924 ± 0.25
33 | IAVNMCSFFVSDLHPMRWGY | 7.495 ± 0.035
34 | ICACKSY | 5.28 ± 0.076
35 | ICFNTSLVPECKHSRSEFDS | 0.643 ± 0.64
36 | ICGVSFTGAIYARGGRLRIR | 0.145 ± 0.63
37 | ICIHYANNLLVNMRTKMCHK | 9.369 ± 0.054
38 | ICIVVVCDFCIYRMCATGTV | 0.735 ± 0.28
39 | ICKGRCVASGWV | 1.61 ± 0.14
40 | ICKRIFGRYRYLSSEVDCVS | -1.54 ± 0.55
41 | ICQCRSLRGRAYQVLGVNKS | 0.731 ± 0.57
42 | ICQRVDCSLCGPGWCTFVEH | 9.398 ± 0.051
43 | ICVECSYVYMTGGKV | 3.79 ± 0.057
44 | IDCWCSVSWATAL | -0.4 ± 0.64
45 | IDFKHVL | -0.964 ± 0.39
46 | IDFVVFFT | 1.09 ± 0.27
47 | IDILTVICVPEIYNWFLMQY | -0.842 ± 0.35
48 | IDLAHGWSSSH | 0.66 ± 0.57
49 | IDLTHECVRVWVDSKLLSPF | -0.742 ± 1.1
50 | IDMYRRQYDQSQIKCNFSS | -0.087 ± 0.45
51 | IDNYFIRVKTFSDFMSSLDG | inactive
52 | IDVGI | 0.106 ± 0.2

Row | Substance | amyloid nucleation score
53 | IDYRPDCQRPVLVYLNKGCM | -0.389 ± 0.24
54 | IEDYACMLNREMG | 5.36 ± 0.049
55 | IEFSDQVRCYLFCCRC | 8.977 ± 0.07
56 | IEIHALRPEQMFSVLGYGVQ | 0.146 ± 0.27
57 | IEMLSNY | -0.575 ± 0.49
58 | IEPSHFNGNSASWV | -0.184 ± 0.63
59 | IFDAFWYTVTVRDNDG | 1.76 ± 0.17
60 | IFFVRACSKAGFVQPLSIFY | -0.113 ± 0.65
61 | IFIRMH | 2.48 ± 0.16
62 | IFPLDQLQIFWLSLTMTMQL | -0.829 ± 1.1
63 | IFQRWHIS | -2.67 ± 1.1
64 | IFRCRYTSGRFNAALSCC | -1.44 ± 0.49
65 | IFRDNVYFIE | -0.692 ± 1
66 | IFSTPKTLDPVFYCL | inactive
67 | IFTKNFIPCDFFMS | -2.05 ± 0.76
68 | IFYGRYGAILWGAKCLY | 1.96 ± 0.21
69 | IGGLISLGISSIERGYSSLI | inactive
70 | IGIDRL | -0.069 ± 0.49
71 | IGLTLHMRRVVGAKSFKMPL | 0.29 ± 0.77
72 | IGSLNMLLLGRLVVWMRHIA | 0.312 ± 0.54
73 | IGSRVVYISRVLLKNWTLVT | -0.592 ± 0.76
74 | IGWFKRRSCVEFGRRRMRIL | -1.3 ± 1.1
75 | IHAFLALVNCNDTSTKTEVK | -0.435 ± 0.56
76 | IHGVFCEFVRIIRNVGSAIR | -0.226 ± 0.35
77 | IHLKLRRYLDNYYLNATNCG | -0.509 ± 0.31
78 | IIAPSSEL | -0.479 ± 0.63

Row | Substance | amyloid nucleation score
79 | IICAKDMFNLFIKVRQYGWS | 4.698 ± 0.038
80 | IIEIRAASGPVGFSDINMF | -0.459 ± 1.1
81 | IIGGTYIWVCVRGPTGRFDG | 9.373 ± 0.064
82 | IIKECEWNCIVTSDIAYVRW | 5.481 ± 0.052
83 | IILFTIARDLSRVGFRFLMA | -0.545 ± 0.56
84 | IILTVNRRMDLEGYFYFMFE | -0.93 ± 1
85 | IIMFRVYVM | -0.964 ± 0.76
86 | IIRVSSCPCTNI | inactive
87 | IISENAYCLPMIMT | -0.437 ± 0.54
88 | IITGLQFLD | -0.691 ± 0.79
89 | IITIIKF | 7.164 ± 0.03
90 | IIVFKEESYIYKTRSVLGSR | -0.503 ± 0.56
91 | IIVYFVAFASTGARASK | -0.951 ± 0.54
92 | IKEFYISQNFVNSHLRLANM | -1.51 ± 1.1
93 | IKGGRQAYNPTLGEVRGCAR | 2.93 ± 0.13
94 | IKISNLTTKVMSHFVSGVAK | -0.982 ± 0.48
95 | IKLLLMSLTVSVTGILQFKP | 4.51 ± 0.05
96 | IKLQMSLATAQIETGTHGLH | 3.51 ± 0.16
97 | IKSVRTWGSLESA | -0.073 ± 0.34
98 | IKTSDYNHFRYWSKRPYVSW | -0.738 ± 1.1
99 | IKTYNGGSWGALSCIALRLI | -1.39 ± 0.78
100 | ILASCTSRCFESEVRGTSFA | 0.568 ± 0.39
101 | ILCYMFVYYAYA | 0.016 ± 1.1
102 | ILDRYLVHGI | -0.394 ± 0.78
103 | ILELDMLLCKKVTHL | 4.3 ± 0.089
104 | ILFWFRT | 4.9 ± 0.043

Row | Substance | amyloid nucleation score
105 | ILGCWELSHM | -0.849 ± 1.1
106 | ILISIISFTKSCNISISLEW | -0.603 ± 1.1
107 | ILLHIDNGRRSFSNIKATS | -0.886 ± 1.1
108 | ILLLFVPSDFRNICFE | -0.532 ± 0.29
109 | ILLMNVNGILSIRVQRRKRV | -0.623 ± 0.79
110 | ILMCETLWNWLKWIPKFNSC | -0.403 ± 0.5
111 | ILRLTAVCHGHFAVRPDWKR | 0.248 ± 0.35
112 | ILRSRGERISASY | 2.97 ± 0.14
113 | ILVRTSCGGM | -0.898 ± 1.1
114 | ILVTAYTFTMVRSDEGCRKV | 3.63 ± 0.085
115 | ILVWANSHVLDVDHRDRGRR | 1.9 ± 0.13
116 | ILVYDEVTSYQDPYFS | -0.69 ± 0.63
117 | ILWISHLELCENVLVLDWQM | 2.99 ± 0.048
118 | ILYGSGVFSSG | -1.17 ± 1.1
119 | ILYYLGWVASALEGHYLDES | -0.853 ± 0.55
120 | IMCQVSR | -0.171 ± 1
121 | IMCRETRLYMGMFVFDQLPQ | 6.46 ± 0.079
122 | IMLATAAYFVLLGIFPGAWF | inactive
123 | IMLGTFMRNLQNLQHFVRHV | 0.337 ± 0.57
124 | IMPLSKLCMWETIRSDGRRG | 1.07 ± 0.29
125 | IMRVMPICRFVII | 1.25 ± 0.12
126 | IMSSV | inactive
127 | IMVRLLDAYHTMRAKDSMGN | 0.06 ± 0.62
128 | INGQDKHRHWSFTLFYKKRY | -0.145 ± 1.1
